assay: yeast display, Sf9 membrane polyspecificity reagent, FACS + sequencing; frameworks hold sequencing errors
Outline: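 Nanobodies from a synthetic yeast display library (Saccharomyces cerevisiae BJ5465), induced 36–48 hours with galactose, were stained 1 hour at 4 °C with 10% biotinylated, detergent-solubilized Sf9 membrane reagent, enriched on streptavidin microbeads, then FACS-sorted. Anti-HA (expression) and streptavidin (reagent binding) fluorescence set low and high (top ~1%) gates. Polyreactivity labels come from the gate of origin. Genes were colony-PCR amplified, MiSeq 2 × 250 sequenced and filtered by CDR length.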

Sequence | polyreactivity (PSR sort gate)
QVQLVESGGGLVQAGGSLRLSCAASGRIFGQNAMGWYRQAPGKERELVADITGSGGRTYYADSVKGRFTISRDNAKNTVYFQMNSLKPEDTAVYYCAVRVTSYYRTMVYWGQVTQVTVSS | low polyreactivity
QVQLVESGGGLVQAGGSLRLSCAASGRIFGQYAMGWYRQAPGKDRELVAAISWRGGTTYYADSVKGRFTISRDNAKNTVYLQMNSLKPEDTAVYYCNADVWVYPYDYWGQGTQVTVSS | low polyreactivity
QVQLVESGGGLVQAGGSLRLSCAASGRIFGQYAMGWYRQAPGKERELVAAISWRGGTTYYADSVKGRFTISRDNAKNTVYLKMNSLKPVDTAVYYCNADVWVYPYDYWGQGTQVTVSS | low polyreactivity
QVQLVESGGGLVQAGGSLRLSCAASGRIFGQYAMGWYRQAPGKERELVASIRSGGSTNYADSVKGRFTISRDNAKNTVYLQMNSLKPADSAVYYCNRRSGRTSRFHDYGYWGQGTQVTVSS | high polyreactivity
QVQLVESGGGLVQAGGSLRLSCAASGRIFGRDMGWYRQAPGKERELVATITWRGGSTYYADSVKGRFTISRDNAKNTVYLQMNSLKPEDTAVYYCTAALSHDYWHYRLGYWGQGTQVTVSS | low polyreactivity
QVQLVESGGGLVQAGGSLRLSCAASGRIFGRNAMGWYRPAPGKERELVADISYRGGRPYYADSVKGRFTISRDNAKNTVYLQMNSLKPEDTAVYYCNAGVYRSGGRKYDYWGQGTQVTVSS | high polyreactivity
QVQLVESGGGLVQAGGSLRLSCAASGRIFGRNAMGWYRQAPGKEREFVAGITTNGGRTYYADSVKGRFTISRDYAKNSVFLQMNSLIPEDTAVYYWAAVRYYFLKYYYWGQGTQVTVSS | high polyreactivity
QVQLVESGGGLVQAGGSLRLSCAASGRIFGRNAMGWYRQAPGKEREFVARIRTSGGSTYYADSVKGRFTISRDNAKNTVYLQMISLTPEDTAVYYCAAAVYTSARGYDYWGQGTQVTVSS | high polyreactivity
QVQLVESGGGLVQAGGSLRLSCAASGRIFGRNAMGWYRQAPGKERELVAGISSGGTTDYADSVKGRFTISRDNAKNTVYLQMNSLKPEDTAVYYCNDGYAYDDQTYYLGESDYWGQGTQVTVSS | low polyreactivity
QVQLVESGGGLVQAGGSLRLSCAASGRIFGRNARGWYRQAPGKEREFVAAISGNGGSTYYADSVKGRFTISRDNAKNTVYLQMNSLKPEDTAVYYCATKYFSRMDYWGQGTQVTVSS | high polyreactivity
QVQLVESGGGLVQAGGSLRLSCAASGRIFGRYAMGWSRQAPGKERELVAAIRWSVGSTYYADSVKGRFTISRDNAKNTVYLQMNSLKPEDTAVYYCAADIRQSIMDYWGQGTQVTVSS | high polyreactivity
QVQLVESGGGLVQAGGSLRLSCAASGRIFGRYAMGWYRPAPGKERELVAAITYRTGRTYYADSVKGRFTISRDNAKNTVYLQMNSLKPEDTAVYYCDAESTSDPIDFEYWGQGTQVTVSS | low polyreactivity
QVQLVESGGGLVQAGGSLRLSCAASGRIFGRYAMGWYRQAPGKDRELVAAISSRGSRTYYADSVKGRFTISRDNAKNTVYLQMNSLKPEVTAVYYCAASWLSYPSDYDYWGQGTQVTVSS | high polyreactivity
QVQLVESGGGLVQAGGSLRLSCAASGRIFGRYAMGWYRQAPGKEREFVAAISKRGGGTYYADSVKGRFTISRDNAKNTVYLQMNSLKPEDTAVYYCAVDNSPGFDDYDYWGQGTQVTVSS | high polyreactivity
QVQLVESGGGLVQAGGSLRLSCAASGRIFGRYAMGWYRQAPGKERELVAVISSGGSTYYADSVKGRFTISRDNAKNTVYLQMNSLKPDDTAVYYCAAVIRGGYDYWGQGTQVTVSS | low polyreactivity
QVQLVESGGGLVQAGGSLRLSCAASGRIFGRYAMGWYRQAPGTERELVAAITSGGRTSYADSVKGRFTISRDNAKNTVDLQMNSLKPEDTAVYYCNVVSRNSIRFDYWGQGTQVTVSS | high polyreactivity

Sequence | polyreactivity (PSR sort gate)
QVQLVESGGGLVQAGGSLRLSCAASGRIFGSYAMGWYRPAPGKERELVAGIRSVGSTNYADSVKGRFTISRDNAKNTVYLQMNSLKPEDTAVYYCAARLWHLSYAGQGGDYWGQGTQVTVSS | low polyreactivity
QVQLVESGGGLVQAGGSLRLSCAASGRIFGSYAMGWYRQAPGKERELVAAISWNGGSRYYADSVKGRFTISRDNAKNTVYLQMNSLKPEDTAVYYCAVVYRAYRSTAYLYGYWGQGTQVTVSS | high polyreactivity
QVQLVESGGGLVQAGGSLRLSCAASGRIFGSYAMGWYRQAPGKERELVAAITRGGSTNYADSVKGRFTISRDNAKNTVYFQMNSLKPEDTAVYYCARWVGLHYPYYYWGQGTQVTVSS | high polyreactivity
QVQLVESGGGLVQAGGSLRLSCAASGRIFGSYAMGWYRQAPGKERELVAAITTVGITYYADSVKGRFTISRDNAKNTVYLQMNSLKPEDTADYYCAAEYFDYPYWYDYWGQGTQVTVSS | high polyreactivity
QVQLVESGGGLVQAGGSLRLSCAASGRIFGSYAMGWYRQAPGKERELVAGIRSVGSTNYADSVKGRFTISRDNAKNTVYFQINSLKPEDTAVYYCAARLWHLSYAGQGGDYWGHGTQVTVSS | low polyreactivity
QVQLVESGGGLVQAGGSLRLSCAASGRIFGSYAMVWYRQVPGKERELVAASNWRGGSTFYADSVKGRFTISRDIAKNTVFLQMNSLKPDDNAVYYCSRRVYPQSCDNWGQGTQLTVSS | low polyreactivity
QVQLVESGGGLVQAGGSLRLSCAASGRIFGTNDMGWYRQAPGKETELVAAIRATSGSTYYADSVKGRFTISRDNAKNTVYLQMNSLKPEDTAVYYCAAEIWRYNSYIKYWHRLDYWGQGTQVTVSS | high polyreactivity
QVQLVESGGGLVQAGGSLRLSCAASGRIFGVNAMGWYRQAPGKERELVAAIFSGGSTYYADSVKGRFTISRDNAKNTVYLQMNSLKPEDTAGYYCAARFARYDWSMYYWGQGTQVTVSS | low polyreactivity
QVQLVESGGGLVQAGGSLRLSCAASGRIFGVNAMGWYRQAPGKERELVAAIFSGGSTYYADSVKGRFTISRDTAKNTVYLQMNSLKPEDTAVYYCAARFARYDWSMYYWGQGTQVTVSS | low polyreactivity
QVQLVESGGGLVQAGGSLRLSCAASGRIFGVNAMGWYRQAPGKERELVAAINYSGGRTSYADSVKGRFTISRDHAKNTVYLQMNSLKPEDTAVYYCAKYGLRGGYLYYYWGQGTQVTVSS | high polyreactivity
QVQLVESGGGLVQAGGSLRLSCAASGRIFGVNAMGWYRQAPGKERELVAAITSSGGSTYYADSVKGRFTISRDHAKNTVYLQMNSLKPEDTAVYYCAAKYWYGKPYGSYGYWGQGTQVTVSS | high polyreactivity
QVQLVESGGGLVQAGGSLRLSCAASGRIFGVNAMGWYRQAPGKERELVAAITWSGGRTYYADSVKGRFTISRDNAKNTVFLLMNSMKQEDTAVYYCNTGLSGRRYGFGLSFCMDYWGQGTQVTVSS | low polyreactivity
QVQLVESGGGLVQAGGSLRLSCAASGRIFGVNVMGWYRQAPGKERELVAGINSSGGSTYYADSVKGRFTISRDNAKNTVYLQMNSLKPEDTAVYYCDVRSIWRYGYWGQGTQVTVSS | high polyreactivity
QVQLVESGGGLVQAGGSLRLSCAASGRIFGVYAMGWYRQAPGKERELVAAITRRGGTTYYADSVKGRFTISRDNAKNTVYLQMNSLKPEDTAVYYCAAVFVTQSFIYDYYYWGQGTQVTVSS | high polyreactivity
QVQLVESGGGLVQAGGSLRLSCAASGRIFGVYAMGWYRQAPGKERELVAAITSSGGRTYYADSVKGRFTISRDNAKNTVYLQMNSLKPEDTAVYYCAALGLSRRGKFNYWGQGTQVTVSS | high polyreactivity
QVQLVESGGGLVQAGGSLRLSCAASGRIFGVYAMGWYRQAPGKERELVAAIYSGSSTYYADSVKGRFTISRDNAKNTVYLQMNSLKPEDTAVYYCAAVSRDDNYHDYYYWGQGTQVTVSS | low polyreactivity
